Target: T1, murine CD166(1-527)-His (mouse, UniProt Q61490 28-527)
T1 construct: signal peptide in the construct; ALCAM (CD166), mouse, residues 1-527 as printed; also called murine ALCAM; source: bought: Sino Biological, purified
T1 sequence (looked up): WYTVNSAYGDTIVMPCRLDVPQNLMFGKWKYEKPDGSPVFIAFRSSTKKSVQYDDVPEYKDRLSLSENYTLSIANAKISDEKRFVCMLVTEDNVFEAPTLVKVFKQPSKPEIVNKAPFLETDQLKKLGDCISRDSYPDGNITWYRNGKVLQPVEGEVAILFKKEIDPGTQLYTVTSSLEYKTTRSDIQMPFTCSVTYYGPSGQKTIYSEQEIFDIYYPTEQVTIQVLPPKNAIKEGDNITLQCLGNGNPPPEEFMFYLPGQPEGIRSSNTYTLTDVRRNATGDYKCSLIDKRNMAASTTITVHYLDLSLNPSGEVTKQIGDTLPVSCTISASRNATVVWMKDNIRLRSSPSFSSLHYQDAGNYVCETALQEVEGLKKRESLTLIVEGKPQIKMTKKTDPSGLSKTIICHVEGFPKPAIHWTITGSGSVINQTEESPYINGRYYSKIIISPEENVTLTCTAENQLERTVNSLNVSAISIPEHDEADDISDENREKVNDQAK
Test: ELISA; competition ELISA: plates coated overnight at 4°C with murine CD166(1-527)-His (5 μg/ml), blocked with PBS with 2% milk powder; 2 h at RT with a fixed amount of murine CD6-Fc (1 μg/ml) and I/F8-Fc or KSF-Fc in PBS (4 to 0.25 μg/ml); bound CD6-Fc detected with HRP-coupled anti-human IgG
Conditions: both partners purified

binding result: binds
B1: murine CD6-Fc (Fc fusion, mouse, UniProt Q61003 17-398, looked up)
chain: GLPSPAPSGQHKNGTIPNMTLDLEERLGIRLVNGSSRCSGSVKVLLESWEPVCAAHWNRAATEAVCKALNCGDSGKVTYLMPPTSELPPGATSGNTSSAGNTTWARAPTERCRGANWQFCKVQDQECSSDRRLVWVTCAENQAVRLVDGSSRCAGRVEMLEHGEWGTVCDDTWDLQDAHVVCKQLKCGWAVKALAGLHFTPGQGPIHRDQVNCSGTEAYLWDCPGRPGDQYCGHKEDAGVVCSEHQSWRLTGGIDSCEGQVEVYFRGVWSTVCDSEWYPSEAKVLCRSLGCGSAVARPRGLPHSLDGRMYYSCKGQEPALSTCSWRFNNSNLCSQSRAARVVCSGSQRHLNLSTSEVPSRVPVTIESSVPVSVKDKDSQGLT
notes: CD6, mouse; source: bought: R&D Systems

— PMC6473055, “ALCAM Mediates DC Migration Through Afferent Lymphatics and Promotes Allospecific Immune Reactions” (Frontiers in Immunology, 2019)
